The record followed here is US20210003577A1 (MAYO FOUNDATION FOR MEDICAL EDUCATION AND RESEARCH, published 2021).

The target in assay [1] is T1, endogenous TET1 in C4-2CON and C4-2ENZ-R cells (human, UniProt Q8NFU7 1-2136, limits assumed).
T1 construct: Endogenous protein in cell lysate for co-IP
The assay can be described thus: co-immunoprecipitation of endogenous proteins, C4-2CON and C4-2ENZ-R cells.

The target in assay [2] is T2, endogenous TET3 in C4-2CON and C4-2ENZ-R cells (human, UniProt O43151 1-1795, limits assumed).
T2 construct: Endogenous protein in cell lysate for co-IP
The description is as above.

T1 sequence (Q8NFU7 whole entry): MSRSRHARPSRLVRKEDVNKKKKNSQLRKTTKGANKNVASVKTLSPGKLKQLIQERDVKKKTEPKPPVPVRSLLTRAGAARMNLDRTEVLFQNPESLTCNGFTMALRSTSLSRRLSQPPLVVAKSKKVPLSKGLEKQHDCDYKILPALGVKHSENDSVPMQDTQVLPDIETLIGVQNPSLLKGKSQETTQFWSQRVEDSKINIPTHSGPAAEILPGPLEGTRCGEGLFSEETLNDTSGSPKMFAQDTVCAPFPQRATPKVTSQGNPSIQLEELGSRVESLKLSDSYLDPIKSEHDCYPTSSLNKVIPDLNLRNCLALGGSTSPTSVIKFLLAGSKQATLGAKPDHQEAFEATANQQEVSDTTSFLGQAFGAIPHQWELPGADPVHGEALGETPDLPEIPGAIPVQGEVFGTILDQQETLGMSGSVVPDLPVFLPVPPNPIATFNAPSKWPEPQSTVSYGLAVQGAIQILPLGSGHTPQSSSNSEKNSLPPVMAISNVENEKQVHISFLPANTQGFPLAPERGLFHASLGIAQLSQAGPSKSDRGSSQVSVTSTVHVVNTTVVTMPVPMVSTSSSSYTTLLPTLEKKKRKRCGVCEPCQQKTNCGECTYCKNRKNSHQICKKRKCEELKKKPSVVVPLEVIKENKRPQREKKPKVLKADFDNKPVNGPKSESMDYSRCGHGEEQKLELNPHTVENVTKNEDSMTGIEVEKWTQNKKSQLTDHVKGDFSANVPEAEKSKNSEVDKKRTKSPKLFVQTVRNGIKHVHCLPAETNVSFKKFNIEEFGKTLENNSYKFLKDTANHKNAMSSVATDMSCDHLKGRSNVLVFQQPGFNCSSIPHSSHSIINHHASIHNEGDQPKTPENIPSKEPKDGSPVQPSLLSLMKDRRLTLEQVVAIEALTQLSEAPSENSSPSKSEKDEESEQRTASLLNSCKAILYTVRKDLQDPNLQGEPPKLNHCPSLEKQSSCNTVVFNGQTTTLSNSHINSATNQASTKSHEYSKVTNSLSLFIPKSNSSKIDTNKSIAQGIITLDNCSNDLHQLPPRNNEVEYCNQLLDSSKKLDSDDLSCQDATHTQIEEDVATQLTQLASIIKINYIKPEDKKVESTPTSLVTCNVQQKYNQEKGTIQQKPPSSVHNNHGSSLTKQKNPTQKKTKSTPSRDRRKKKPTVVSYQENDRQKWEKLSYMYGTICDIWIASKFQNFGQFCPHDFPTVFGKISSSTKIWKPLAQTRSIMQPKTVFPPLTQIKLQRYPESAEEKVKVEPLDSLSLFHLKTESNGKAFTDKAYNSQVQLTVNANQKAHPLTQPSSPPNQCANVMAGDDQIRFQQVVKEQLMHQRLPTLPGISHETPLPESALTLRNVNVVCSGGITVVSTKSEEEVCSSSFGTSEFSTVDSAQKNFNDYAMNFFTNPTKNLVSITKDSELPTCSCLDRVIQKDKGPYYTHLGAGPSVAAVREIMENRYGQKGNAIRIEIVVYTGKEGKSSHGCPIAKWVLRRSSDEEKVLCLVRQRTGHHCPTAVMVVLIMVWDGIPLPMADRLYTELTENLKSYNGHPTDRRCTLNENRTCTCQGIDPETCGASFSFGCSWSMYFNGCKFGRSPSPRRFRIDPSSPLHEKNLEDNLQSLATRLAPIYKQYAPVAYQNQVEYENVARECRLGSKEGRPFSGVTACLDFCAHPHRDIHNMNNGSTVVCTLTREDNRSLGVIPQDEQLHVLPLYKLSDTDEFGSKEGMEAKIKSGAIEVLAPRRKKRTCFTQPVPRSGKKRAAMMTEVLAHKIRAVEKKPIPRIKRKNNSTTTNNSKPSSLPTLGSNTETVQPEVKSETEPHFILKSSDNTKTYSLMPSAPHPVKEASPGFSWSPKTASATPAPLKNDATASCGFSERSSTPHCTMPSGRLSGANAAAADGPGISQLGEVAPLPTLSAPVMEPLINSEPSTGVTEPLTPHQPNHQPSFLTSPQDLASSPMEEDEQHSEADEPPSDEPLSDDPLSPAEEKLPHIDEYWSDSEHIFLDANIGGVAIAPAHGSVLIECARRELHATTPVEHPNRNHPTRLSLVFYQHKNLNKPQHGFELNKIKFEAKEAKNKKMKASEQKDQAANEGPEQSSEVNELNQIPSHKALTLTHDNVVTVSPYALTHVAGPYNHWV
T2 sequence (O43151 whole entry): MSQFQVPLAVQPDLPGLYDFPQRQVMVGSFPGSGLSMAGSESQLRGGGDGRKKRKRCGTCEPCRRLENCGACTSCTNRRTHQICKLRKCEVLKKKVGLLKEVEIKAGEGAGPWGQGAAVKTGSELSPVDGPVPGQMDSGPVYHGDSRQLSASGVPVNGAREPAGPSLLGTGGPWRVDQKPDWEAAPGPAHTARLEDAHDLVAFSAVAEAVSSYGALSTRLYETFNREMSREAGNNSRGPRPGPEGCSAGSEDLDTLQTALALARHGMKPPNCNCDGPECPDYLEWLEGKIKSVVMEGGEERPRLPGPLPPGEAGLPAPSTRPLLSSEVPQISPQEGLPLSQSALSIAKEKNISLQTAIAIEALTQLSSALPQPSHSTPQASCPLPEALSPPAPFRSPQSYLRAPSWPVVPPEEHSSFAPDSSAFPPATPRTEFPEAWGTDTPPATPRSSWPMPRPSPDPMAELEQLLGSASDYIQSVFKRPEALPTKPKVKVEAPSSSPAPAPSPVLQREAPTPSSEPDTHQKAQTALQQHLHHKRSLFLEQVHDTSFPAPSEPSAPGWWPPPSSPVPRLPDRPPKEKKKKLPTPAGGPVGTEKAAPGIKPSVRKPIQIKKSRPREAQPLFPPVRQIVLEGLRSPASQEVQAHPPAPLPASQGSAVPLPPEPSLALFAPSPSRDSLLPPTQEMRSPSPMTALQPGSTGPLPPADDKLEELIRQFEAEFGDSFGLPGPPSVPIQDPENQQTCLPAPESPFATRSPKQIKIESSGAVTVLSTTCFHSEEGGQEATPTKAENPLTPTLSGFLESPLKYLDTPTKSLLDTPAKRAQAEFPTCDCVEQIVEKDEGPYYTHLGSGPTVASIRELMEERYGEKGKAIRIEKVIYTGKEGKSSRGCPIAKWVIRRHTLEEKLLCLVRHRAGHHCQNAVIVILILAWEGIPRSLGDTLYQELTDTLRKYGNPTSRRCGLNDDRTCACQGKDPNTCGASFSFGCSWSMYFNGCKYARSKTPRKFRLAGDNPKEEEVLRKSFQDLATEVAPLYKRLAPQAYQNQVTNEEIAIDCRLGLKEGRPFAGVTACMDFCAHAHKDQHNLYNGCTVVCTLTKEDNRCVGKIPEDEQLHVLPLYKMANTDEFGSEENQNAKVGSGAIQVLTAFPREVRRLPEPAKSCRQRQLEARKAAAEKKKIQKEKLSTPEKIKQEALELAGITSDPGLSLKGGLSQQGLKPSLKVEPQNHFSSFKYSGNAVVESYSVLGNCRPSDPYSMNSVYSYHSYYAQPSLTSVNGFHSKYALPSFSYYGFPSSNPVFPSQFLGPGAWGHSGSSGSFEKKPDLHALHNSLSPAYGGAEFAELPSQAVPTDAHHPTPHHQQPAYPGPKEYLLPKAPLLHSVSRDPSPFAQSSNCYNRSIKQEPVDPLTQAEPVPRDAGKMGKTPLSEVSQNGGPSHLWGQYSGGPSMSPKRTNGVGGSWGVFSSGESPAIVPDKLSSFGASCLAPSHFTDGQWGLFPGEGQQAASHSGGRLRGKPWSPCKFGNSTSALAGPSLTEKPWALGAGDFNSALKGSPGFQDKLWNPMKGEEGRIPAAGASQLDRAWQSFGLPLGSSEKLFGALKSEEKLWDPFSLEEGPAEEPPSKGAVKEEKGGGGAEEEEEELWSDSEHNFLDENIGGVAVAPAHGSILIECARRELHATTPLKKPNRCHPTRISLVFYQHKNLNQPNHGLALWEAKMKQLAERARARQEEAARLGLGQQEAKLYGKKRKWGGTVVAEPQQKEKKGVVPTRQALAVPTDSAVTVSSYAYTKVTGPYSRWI

B1: endogenous AR in C4-2CON and C4-2ENZ-R cells (receptor, human, UniProt P10275 1-920, looked up)
chain: MEVQLGLGRVYPRPPSKTYRGAFQNLFQSVREVIQNPGPRHPEAASAAPPGASLLLLQQQQQQQQQQQQQQQQQQQQQQQETSPRQQQQQQGEDGSPQAHRRGPTGYLVLDEEQQPSQPQSALECHPERGCVPEPGAAVAASKGLPQQLPAPPDEDDSAAPSTLSLLGPTFPGLSSCSADLKDILSEASTMQLLQQQQQEAVSEGSSSGRAREASGAPTSSKDNYLGGTSTISDNAKELCKAVSVSMGLGVEALEHLSPGEQLRGDCMYAPLLGVPPAVRPTPCAPLAECKGSLLDDSAGKSTEDTAEYSPFKGGYTKGLEGESLGCSGSAAAGSSGTLELPSTLSLYKSGALDEAAAYQSRDYYNFPLALAGPPPPPPPPHPHARIKLENPLDYGSAWAAAAAQCRYGDLASLHGAGAAGPGSGSPSAAASSSWHTLFTAEEGQLYGPCGGGGGGGGGGGGGGGGGGGGGGGEAGAVAPYGYTRPPQGLAGQESDFTAPDVWYPGGMVSRVPYPSPTCVKSEMGPWMDSYSGPYGDMRLETARDHVLPIDYYFPPQKTCLICGDEASGCHYGALTCGSCKVFFKRAAEGKQKYLCASRNDCTIDKFRRKNCPSCRLRKCYEAGMTLGARKLKKLGNLKLQEEGEASSTTSPTEETTQKLTVSHIEGYECQPIFLNVLEAIEPGVVCAGHDNNQPDSFAALLSSLNELGERQLVHVVKWAKALPGFRNLHVDDQMAVIQYSWMGLMVFAMGWRSFTNVNSRMLYFAPDLVFNEYRMHKSRMYSQCVRMRHLSQEFGWLQITPQEFLCMKALLLFSIIPVDGLKNQKFFDELRMNYIKELDRIIACKRKNPTSCSRRFYQLTKLLDSVQPIARELHQFTFDLLIKSHMVSVDFPEMMAEIISVQVPKILSGKVKPIYFHTQ
notes: also called androgen receptor; ARFL
B1: the binding result in assay [1] and in assay [2] was “no binding” each time.
